Test [1] concerns the target T1, Avi-human CD38 ECD (human, UniProt P28907 43-300).
T1 construct: eluted as a monomer; also called hCD38; huCD38
The experiment in a line: SPR.

For test [2], the target named is T2, Human ICAM1 ECD-Avi (human, UniProt P05362 28-480).
T2 construct: eluted as a monomer; also called hICAM1; recombinant ICAM1
Briefly: SPR.

Test [3] addresses T3, ICAM1 on the surface of tumor cells (human, UniProt P05362 28-532). The experiment in a line: cell-based or functional assay.
Test [4] has as its target T4, CD38 on the surface of tumor cells (human, UniProt P28907 1-300). Briefly: cell-based or functional assay.
In test [5] the target is T1, Avi-human CD38 ECD. The experiment in a line: ELISA on human CD38 ECD; class A = EC50 0.02 nM - 0.1 nM (table legend).
The target in test [6] is T4, CD38 on the surface of tumor cells. Briefly: cell-based or functional assay. The source holds these as a separate data set.
Test [7] deals with T1, Avi-human CD38 ECD. The experiment in a line: ELISA on human CD38 ECD; class C = EC50 >0.5 nM (table legend).
For test [8], the target named is T1, Avi-human CD38 ECD. The experiment in a line: ELISA on human CD38 ECD; class B = EC50 0.1 nM - 0.5 nM (table legend).
The target in test [9] is T3, ICAM1 on the surface of tumor cells. The experiment in a line: flow cytometry on DU145 cells.
Method: Surface expression of CD38 and ICAM1 on the transformed cell lines was quantified by flow cytometry. Harvested cells were centrifuged at 2000 rpm for 5 min, resuspended in 10 - 15 ml ice-cold culture medium, and then counted. Then, 3×10⁶ cells were resuspended per ml of blocking buffer (PBS plus 2% FBS). 100 µl of the cell suspension was dispensed into each well of a 96-well plate and incubated at room temperature for 10-20 min. […] While incubating, purified antibodies were diluted to the desired dilution with blocking buffer. After a 10-20 minutes incubation, cells were centrifuged for 5 minutes at 2000 rpm in a refrigerated centrifuge. Blocking buffer was aspirated, and the cells were resuspended in 100 µl/well diluted antibodies and incubated for 1 hour at 4° C. The cells were then washed 3 times with PBS plus 2% FBS. […] The cells were then washed 3 times with 200 µl PBS by centrifuging at 2000 rpm for 5 min. After the last wash, the cells were resuspended in 300 µl cold PBS and analyzed on a FACSVerse™ (BD Biosciences) flow cytometer.
Binding of the chimeric anti-CD38 and anti-ICAM1 antibodies to proteins on the surface of tumor cells was determined by flow cytometry, as described above.
Test [10] deals with T2, Human ICAM1 ECD-Avi. The experiment in a line: SPR (Biacore 8K), antibody captured, monomeric ICAM1 ECD injected.
Method: Furthermore, binding kinetics measurements of the anti-CD38 and anti-ICAM1 antibodies were not affected by antibody valency in the SPR assays because antibodies were immobilized and challenged with monomeric antigens. SPR was performed on a Biacore 8K instrument (GE Healthcare). Antibodies were captured on Biacore Series S CM5 sensor chips coated with a monoclonal mouse anti-human IgG (Fc) antibody (GE Healthcare human antibody capture kit). Serial 3-fold dilutions of antigen (CD38 ECD or ICAM1 ECD) were injected at a flow rate of 30 µl/min. Each sample was analyzed with 1 min association and 10 min dissociation at room temperature (25° C.). After each injection, the chip was regenerated using 3 M MgCl₂. A 1:1 Langmuir model of simultaneous fitting of kₒₙ and koff was used for kinetics analysis.
Test [11] concerns the target T2, Human ICAM1 ECD-Avi. Briefly: ELISA, plate coated with recombinant ICAM1.
Method: A 96-well plate was coated overnight at 4° C. with 1 µg/ml recombinant CD38 or ICAM1. After washing 3 times, the plate was blocked with 300 µl 1% BSA in PBST at 37° C. for 1 hour. Serially diluted antibodies were added and incubated at 37° C. for 1 hour. The plate was then washed 4 times with PBST and incubated with 1:5000 diluted 2nd antibody (Sigma, Cat# A0293) at 37° C. for 1 hour.

Where a chain is given by its changes, count along the chain named.

B1: αCD38(scFv) x αICAM1 (bispecific antibody, human IgG1, kappa)
heavy: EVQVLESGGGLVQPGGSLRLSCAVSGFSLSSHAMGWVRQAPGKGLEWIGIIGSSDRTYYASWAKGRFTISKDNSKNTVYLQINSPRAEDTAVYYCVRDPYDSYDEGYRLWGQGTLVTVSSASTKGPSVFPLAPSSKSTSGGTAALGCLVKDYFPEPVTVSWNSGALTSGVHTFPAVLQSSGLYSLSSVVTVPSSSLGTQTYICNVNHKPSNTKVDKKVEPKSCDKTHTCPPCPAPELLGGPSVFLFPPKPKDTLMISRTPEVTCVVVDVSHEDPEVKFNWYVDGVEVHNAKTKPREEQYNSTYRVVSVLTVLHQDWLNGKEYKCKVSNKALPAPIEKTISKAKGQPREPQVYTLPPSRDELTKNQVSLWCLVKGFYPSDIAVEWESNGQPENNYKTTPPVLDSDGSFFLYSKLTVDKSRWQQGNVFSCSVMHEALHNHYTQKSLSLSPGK
light: DIQMTQSPSTLSASVGDRVTITCQASQSIYRYLSWYQQKPGKAPKFLIYDASKLASGVPSRFSGSGSGTEFTLTISSVQPDDFATYYCQQAYSSGSIDNAFGGGTKVEIKRTVAAPSVFIFPPSDEQLKSGTASVVCLLNNFYPREAKVQWKVDNALQSGNSQESVTEQDSKDSTYSLSSTLTLSKADYEKHKVYACEVTHQGLSSPVTKSFNRGEC
scFv: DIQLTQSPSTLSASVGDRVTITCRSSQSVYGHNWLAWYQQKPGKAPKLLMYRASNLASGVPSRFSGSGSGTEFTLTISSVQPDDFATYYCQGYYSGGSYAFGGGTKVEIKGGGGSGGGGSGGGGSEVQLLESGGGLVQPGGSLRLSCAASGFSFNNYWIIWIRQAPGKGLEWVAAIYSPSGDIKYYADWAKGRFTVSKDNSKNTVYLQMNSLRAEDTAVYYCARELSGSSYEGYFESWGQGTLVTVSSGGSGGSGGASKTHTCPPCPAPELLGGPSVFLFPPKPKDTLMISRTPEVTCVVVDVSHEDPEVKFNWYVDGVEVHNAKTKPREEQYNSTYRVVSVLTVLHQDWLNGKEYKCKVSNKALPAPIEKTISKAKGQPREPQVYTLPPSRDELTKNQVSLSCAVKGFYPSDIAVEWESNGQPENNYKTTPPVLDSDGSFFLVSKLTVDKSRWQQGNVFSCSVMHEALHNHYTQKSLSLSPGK
notes: h11F2-6 Fab arm on Fc-knob, h18E4-19 scFv on Fc-hole; IgG1 Fc; also called three chain bispecific antibody; scFv format bispecific antibody
B1: the Kd with Avi-human CD38 ECD [1] is 2000 to 5000 pM; in the test with Human ICAM1 ECD-Avi [2] it was 100 to 150 pM.

B2: αCD38(TCR) x αICAM1 (bispecific antibody, human IgG1, kappa)
heavy 1: EVQLLESGGGLVQPGGSLRLSCAASGFSFNNYWIIWIRQAPGKGLEWVAAIYSPSGDIKYYADWAKGRFTVSKDNSKNTVYLQMNSLRAEDTAVYYCARELSGSSYEGYFESWGQGTLVTVLEDLKNVFPPEVAVFEPSEAEISHTQKATLVCLATGFYPDHVELSWWVNGKEVHSGVCTDPQPLKEQPALQDSRYALSSRLRVSATFWQNPRNHFRCQVQFYGLSENDEWTQDRAKPVTQIVSAEAWGRASDKTHTCPPCPAPELLGGPSVFLFPPKPKDTLMISRTPEVTCVVVDVSHEDPEVKFNWYVDGVEVHNAKTKPREEQYNSTYRVVSVLTVLHQDWLNGKEYKCKVSNKALPAPIEKTISKAKGQPREPQVCTLPPSREEMTKNQVSLSCAVKGFYPSDIAVEWESNGQPENNYKTTPPVLDSDGSFFLVSKLTVDKSRWQQGNVFSCSVMHEALHNHYTQKSLSLSPG
light 1: DIQLTQSPSTLSASVGDRVTITCRSSQSVYGHNWLAWYQQKPGKAPKLLMYRASNLASGVPSRFSGSGSGTEFTLTISSVQPDDFATYYCQGYYSGGSYAFGGGTKVEIKPDIQNPDPAVYQLRDSKSSDKSVCLFTDFDSQTQVSQSKDSDVYITDKCVLDMRSMDFKSNSAVAWSQKSDFACANAFQNSIIPEDTFFPSPESS
heavy 2: not shown
light 2: B1 light
notes: also called TCR format bispecific antibody; TCR-chimera bispecific antibody
Consider B2, for which the Kd in the test with Avi-human CD38 ECD [1] was 2000 to 5000 pM; with Human ICAM1 ECD-Avi [2], 100 to 150 pM.

B3: h11F2-6 (antibody, V domains shown)
VH: EVQVLESGGGLVQPGGSLRLSCAVSGFSLSSHAMGWVRQAPGKGLEWIGIIGSSDRTYYASWAKGRFTISKDNSKNTVYLQINSPRAEDTAVYYCVRDPYDSYDEGYRLWGQGTLVTVSS
VL: DIQMTQSPSTLSASVGDRVTITCQASQSIYRYLSWYQQKPGKAPKFLIYDASKLASGVPSRFSGSGSGTEFTLTISSVQPDDFATYYCQQAYSSGSIDNAFGGGTKVEIK
Regarding B3, in [3], the “ADCC EC50 on Daudi cells; antibody made in CHO FUT8 -/- (afucosylated)” value turned out to be 8 pM, the “ADCC EC50 on HuNS1 cells; antibody made in CHO FUT8 -/- (afucosylated)” value worked out at 40 pM, the “ADCC EC50 on NCI-H2291 cells; antibody made in CHO” value turned out to be 329 pM and the “ADCC EC50 on NCI-H2291 cells; antibody made in CHO FUT8 -/- (afucosylated)” value turned out to be 19 pM. In test [3], the “ADCC EC50 on NCI-H2342 cells; antibody made in CHO” value came out at 690 pM, the “ADCC EC50 on NCI-H2342 cells; antibody made in CHO FUT8 -/- (afucosylated)” value was 70 pM and the “ADCC EC50 on Raji cells; antibody made in CHO FUT8 -/- (afucosylated)” value was found to be 38 pM.

B4: h18E4-19 (antibody, V domains shown)
VH: EVQLLESGGGLVQPGGSLRLSCAASGFSFNNYWIIWIRQAPGKGLEWVAAIYSPSGDIKYYADWAKGRFTVSKDNSKNTVYLQMNSLRAEDTAVYYCARELSGSSYEGYFESWGQGTLVTV
VL: DIQLTQSPSTLSASVGDRVTITCRSSQSVYGHNWLAWYQQKPGKAPKLLMYRASNLASGVPSRFSGSGSGTEFTLTISSVQPDDFATYYCQGYYSGGSYAFGGGTKVEIK
notes: also called hu18E4-19; humanized h18E4-19 antibody
With B4, in [4], the “ADCC EC50 on Daudi cells; antibody made in CHO” value is 12.7 pM, the “ADCC EC50 on Daudi cells; antibody made in CHO FUT8 -/- (afucosylated)” value is 0.4 pM, the “ADCC EC50 on HuNS1 cells; antibody made in CHO” value came out at 80 pM and the “ADCC EC50 on HuNS1 cells; antibody made in CHO FUT8 -/- (afucosylated)” value worked out at 80 pM. In addition, in [4], the “ADCC EC50 on Raji cells; antibody made in CHO” value amounted to 14 pM and the “ADCC EC50 on Raji cells; antibody made in CHO FUT8 -/- (afucosylated)” value is 8 pM. The same molecule yielded an EC50 in the test with Avi-human CD38 ECD [5] of 20 to 100 pM. In [6], the “ADCC on Daudi cells, EC50” value lay in the range of 0.05 to 0.1 pM.

B5: h18E4-13 (antibody, V domains shown)
VH: EVQLLESGGGLVQPGGSLRLSCAASGFSFNNYWICWIRQAPGKGLEWVACIYSPSGDIKYYADWAKGRFTVSKDNSKNTVYLQMNSLRAEDTAVYYCARELSGSSYEGYFESWGQGTLVTVSS
VL: B4 VL
B5: in the test with Avi-human CD38 ECD [1], the binding result is reported as “binds”.

B6: h18E4-19 LC Y91A (antibody, V domains shown)
VH: B4 VH
VL: B4 VL with Y93A
notes: Alanine scan variant of h18E4-19; Kabat numbers, not linear positions of the entry
Regarding B6, in the test with Avi-human CD38 ECD [7], the EC50 is > 500 pM.

B7: h18E4-19 HC E95A (antibody, name in Kabat numbering, V domains shown)
VH: B4 VH with E100A
VL: B4 VL
notes: as for B6
In the case of B7, the EC50 with Avi-human CD38 ECD [7] was > 500 pM.

B8: h18E4-19 LC S93A (antibody, V domains shown)
VH: B4 VH
VL: B4 VL with S95A
notes: as for B6
Turning to B8, the concentration giving a half-maximal response (EC50) with Avi-human CD38 ECD [8] is 100 to 500 pM.

B9: h18E4-19 LC Y92A (antibody, V domains shown)
VH: B4 VH
VL: B4 VL with Y94A
notes: as for B6
Take B9: in the test with Avi-human CD38 ECD [5], the EC50 is 20 to 100 pM.

B10: h18E4-19 LC G90A (antibody, V domains shown)
VH: B4 VH
VL: B4 VL with G92A
notes: as for B6
For the molecule B10, the EC50 with Avi-human CD38 ECD [8] fell in the range of 100 to 500 pM.

B11: h18E4-19 HC G98A (antibody, V domains shown)
VH: B5 VH with C35I, C50A, G103A
VL: B4 VL
notes: as for B6
The molecule B11 yielded an EC50 in the test with Avi-human CD38 ECD [5] of 20 to 100 pM.

B12: h18E4-19 LC G94A (antibody, V domains shown)
VH: B4 VH
VL: B4 VL with G96A
notes: as for B6
For B12, the EC50 in the test with Avi-human CD38 ECD [7] was > 500 pM.

B13: h18E4-19 LC Y96A (antibody, V domains shown)
VH: B4 VH
VL: B4 VL with Y99A
notes: as for B6
Take B13: the EC50 with Avi-human CD38 ECD [8] was in the range of 100 to 500 pM.

B14: h18E4-19 HC Y100dA (antibody, name in Kabat numbering, V domains shown)
VH: B4 VH with Y109A
VL: B4 VL
notes: as for B6
On to B14, for which, in the test with Avi-human CD38 ECD [7], the EC50 was > 500 pM.

B15: h18E4-19 HC G100cA (antibody, name in Kabat numbering, V domains shown)
VH: B4 VH with G108A
VL: B4 VL
notes: as for B6
With B15, the concentration giving a half-maximal response (EC50) with Avi-human CD38 ECD [8] is 100 to 500 pM.

B16: h18E4-19 LC S95aA (antibody, V domains shown)
VH: B4 VH
VL: B4 VL with S98A
notes: as for B6
B16: the EC50 with Avi-human CD38 ECD [5] lay within 20 to 100 pM.

B17: h18E4-19 LC Q89A (antibody, V domains shown)
VH: B4 VH
VL: B4 VL with Q91A
notes: as for B6
With B17, the EC50 with Avi-human CD38 ECD [5] was 20 to 100 pM.

B18: h18E4-19 HC E100bA (antibody, name in Kabat numbering, V domains shown)
VH: B4 VH with E107A
VL: B4 VL
notes: as for B6
In the case of B18, the EC50 with Avi-human CD38 ECD [7] was > 500 pM.

B19: h18E4-19 LC G95A (antibody, V domains shown)
VH: B4 VH
VL: B4 VL with G97A
notes: as for B6
For the molecule B19, in the test with Avi-human CD38 ECD [5], the EC50 lay in the range of 20 to 100 pM.

B20: anti-ICAM1 chimeric monoclonal antibody 11F2 (antibody, human IgG1, kappa, V domains shown)
VH: QSVEESGGGLVKPGGTLTLTCTVSGFSLSSHAMGWVRQAPGKGLEYIGIIGSSDRTYYASWAKGRFTISKTSTTVDLKITSPTTEDTATYFCVRDPYDSYDDGYRLWGPGTLVTVSS
VL: AYDMTQTPASVEVAVGGTVTIKCQASQSIYRYLSWYQKKPGQRPKFLIYDASKLASGVPSRFEGSGSGTEFTLTISGAQSDDAATYYCQQAYSSGSIDNAFGGGTEVVVKR
notes: Rabbit variable domains on human IgG1 / human kappa constant regions; also called chimeric 11F2
Regarding B20, the EC50 in [9] is 1000 to 1500 pM; in the test with Human ICAM1 ECD-Avi [11], ~50 pM. The equilibrium dissociation constant (Kd) in the test with Human ICAM1 ECD-Avi [10] fell in the range of 100 to 500 pM.

For the origin of these results see US20230312740A1 (VIRTUOSO BINCO, published 2023).
